According to PMC9482650, “Quantitative fragmentomics allow affinity mapping of interactomes” (Nature Communications, 2022):

T1: NHERF3_4, Q5T2W1
T1 sequence (Q5T2W1 373-468, limits assumed, looked up): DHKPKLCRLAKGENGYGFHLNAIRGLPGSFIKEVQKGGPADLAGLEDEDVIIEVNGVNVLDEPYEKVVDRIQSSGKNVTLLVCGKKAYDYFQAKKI

T2: SNTG2, Q9NY99
T2 sequence (Q9NY99 68-166, limits assumed, looked up): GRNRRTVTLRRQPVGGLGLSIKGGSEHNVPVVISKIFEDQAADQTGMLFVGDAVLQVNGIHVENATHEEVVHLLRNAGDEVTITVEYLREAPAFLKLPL

T3: PARD3B_1, Q8TEW8
T3 sequence (Q8TEW8 196-299, limits assumed, looked up): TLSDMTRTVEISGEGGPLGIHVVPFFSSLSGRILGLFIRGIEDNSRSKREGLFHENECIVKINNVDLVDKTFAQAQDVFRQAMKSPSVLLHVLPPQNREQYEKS

T4: DLG3_1, Q92796
T4 sequence (Q92796 125-227, limits assumed, looked up): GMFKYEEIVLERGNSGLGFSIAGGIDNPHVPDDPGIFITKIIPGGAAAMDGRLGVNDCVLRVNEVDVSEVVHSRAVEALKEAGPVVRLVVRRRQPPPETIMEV

T5: APBA2_1, Q99767
T5 sequence (Q99767 563-664, limits assumed, looked up): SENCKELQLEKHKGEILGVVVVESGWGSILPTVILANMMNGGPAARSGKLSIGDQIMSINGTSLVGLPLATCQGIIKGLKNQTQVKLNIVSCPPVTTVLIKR

T6: DLG3_2, Q92796
T6 sequence (Q92796 221-321, limits assumed, looked up): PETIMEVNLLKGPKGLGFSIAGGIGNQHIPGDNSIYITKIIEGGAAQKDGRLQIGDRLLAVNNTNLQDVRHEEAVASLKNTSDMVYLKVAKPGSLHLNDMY

T7: SHANK1, Q9Y566
T7 sequence (Q9Y566 658-767, limits assumed, looked up): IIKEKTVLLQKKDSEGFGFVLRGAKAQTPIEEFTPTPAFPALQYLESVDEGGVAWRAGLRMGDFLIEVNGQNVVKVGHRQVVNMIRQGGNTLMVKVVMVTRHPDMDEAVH

T8: RHPN1, Q8TCX5
T8 sequence (Q8TCX5 508-602, limits assumed, looked up): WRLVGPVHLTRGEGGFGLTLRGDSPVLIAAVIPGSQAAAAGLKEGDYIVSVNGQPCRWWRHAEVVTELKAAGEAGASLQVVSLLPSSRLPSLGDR

T9: DVL3, Q92997
T9 sequence (Q92997 244-331, limits assumed, looked up): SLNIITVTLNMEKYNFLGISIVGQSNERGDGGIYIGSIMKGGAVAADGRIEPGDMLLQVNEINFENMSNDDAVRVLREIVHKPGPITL

T10: MPDZ_12, O75970
T10 sequence (O75970 1857-1958, limits assumed, looked up): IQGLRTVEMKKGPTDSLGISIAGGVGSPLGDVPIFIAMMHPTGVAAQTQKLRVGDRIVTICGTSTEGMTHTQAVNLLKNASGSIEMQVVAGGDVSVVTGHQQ


Target: MAST1, Q9Y2H9
Test: holdup assay
Parameters: key: below the threshold = too weak to quantify, mostly under pKd 3.1 to 4
Settings: plain residues with an end cap or a label only (N-terminal biotin on a linker: ado-ado)

Chain of MAST1, Q9Y2H9 (Q9Y2H9 962-1065): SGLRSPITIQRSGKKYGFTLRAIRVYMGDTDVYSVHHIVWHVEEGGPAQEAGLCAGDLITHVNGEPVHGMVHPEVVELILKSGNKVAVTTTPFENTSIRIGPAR

Binder	pKd
EWTDERQSKV [GAB3, Q8WWW8]	below the threshold
NLQEHSTTSV [RSBN1, Q5VWQ0]	4.76

Target: T1, NHERF3_4, Q5T2W1
Test: holdup assay
Parameters: key: below the threshold = too weak to quantify, mostly under pKd 3.1 to 4
Settings: plain residues with an end cap or a label only (N-terminal biotin on a linker: ado-ado)

Binder	pKd
EWTDERQSKV [GAB3, Q8WWW8]	below the threshold
NLQEHSTTSV [RSBN1, Q5VWQ0]	below the threshold

Target: T2, SNTG2, Q9NY99
Test: holdup assay
Parameters: key: below the threshold = too weak to quantify, mostly under pKd 3.1 to 4
Settings: plain residues with an end cap or a label only (N-terminal biotin on a linker: ado-ado)

Binder	pKd
EWTDERQSKV [GAB3, Q8WWW8]	3.88
NLQEHSTTSV [RSBN1, Q5VWQ0]	below the threshold

Target: GRIP2_4, Q9C0E4
Test: holdup assay
Parameters: key: below the threshold = too weak to quantify, mostly under pKd 3.1 to 4
Settings: plain residues with an end cap or a label only (N-terminal biotin on a linker: ado-ado)

Chain of GRIP2_4, Q9C0E4 (Q9C0E4 446-548): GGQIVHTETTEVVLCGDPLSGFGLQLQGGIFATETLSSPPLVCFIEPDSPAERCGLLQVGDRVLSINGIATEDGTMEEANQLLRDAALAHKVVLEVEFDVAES

Binder	pKd
EWTDERQSKV [GAB3, Q8WWW8]	below the threshold
NLQEHSTTSV [RSBN1, Q5VWQ0]	below the threshold

Target: MAST2, Q6P0Q8
Test: holdup assay
Parameters: key: below the threshold = too weak to quantify, mostly under pKd 3.1 to 4
Settings: plain residues with an end cap or a label only (N-terminal biotin on a linker: ado-ado)

Chain of MAST2, Q6P0Q8 (Q6P0Q8 1099-1202): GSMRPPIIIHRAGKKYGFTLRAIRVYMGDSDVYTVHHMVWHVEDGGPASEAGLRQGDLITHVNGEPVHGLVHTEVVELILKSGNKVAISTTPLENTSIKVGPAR

Binder	pKd
EWTDERQSKV [GAB3, Q8WWW8]	4.8
NLQEHSTTSV [RSBN1, Q5VWQ0]	5.61

Target: T3, PARD3B_1, Q8TEW8
Test: holdup assay
Parameters: key: below the threshold = too weak to quantify, mostly under pKd 3.1 to 4
Settings: plain residues with an end cap or a label only (N-terminal biotin on a linker: ado-ado)

Binder	pKd
EWTDERQSKV [GAB3, Q8WWW8]	below the threshold
NLQEHSTTSV [RSBN1, Q5VWQ0]	below the threshold

Target: FRMPD2_1, Q68DX3
Test: holdup assay
Parameters: key: below the threshold = too weak to quantify, mostly under pKd 3.1 to 4
Settings: plain residues with an end cap or a label only (N-terminal biotin on a linker: ado-ado)

Chain of FRMPD2_1, Q68DX3 (Q68DX3 770-861): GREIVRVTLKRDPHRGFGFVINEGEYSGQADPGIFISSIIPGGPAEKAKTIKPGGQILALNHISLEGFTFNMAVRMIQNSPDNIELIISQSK

Binder	pKd
EWTDERQSKV [GAB3, Q8WWW8]	below the threshold
NLQEHSTTSV [RSBN1, Q5VWQ0]	below the threshold

Target: GORASP2, Q9H8Y8
Test: holdup assay
Parameters: key: below the threshold = too weak to quantify, mostly under pKd 3.1 to 4
Settings: plain residues with an end cap or a label only (N-terminal biotin on a linker: ado-ado)

Binder	pKd
EWTDERQSKV [GAB3, Q8WWW8]	below the threshold
NLQEHSTTSV [RSBN1, Q5VWQ0]	below the threshold

Target: Inadl_8, Q8NI35
Test: holdup assay
Parameters: key: below the threshold = too weak to quantify, mostly under pKd 3.1 to 4
Settings: plain residues with an end cap or a label only (N-terminal biotin on a linker: ado-ado)

Chain of Inadl_8, Q8NI35 (Q8NI35 1425-1530): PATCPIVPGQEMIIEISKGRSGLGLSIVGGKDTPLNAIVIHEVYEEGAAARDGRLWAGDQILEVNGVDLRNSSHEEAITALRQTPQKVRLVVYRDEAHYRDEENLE

Binder	pKd
EWTDERQSKV [GAB3, Q8WWW8]	4.02
NLQEHSTTSV [RSBN1, Q5VWQ0]	3.81

Target: LNX1_2, Q8TBB1
Test: holdup assay
Parameters: key: below the threshold = too weak to quantify, mostly under pKd 3.1 to 4
Settings: plain residues with an end cap or a label only (N-terminal biotin on a linker: ado-ado)

Chain of LNX1_2, Q8TBB1 (Q8TBB1 371-470): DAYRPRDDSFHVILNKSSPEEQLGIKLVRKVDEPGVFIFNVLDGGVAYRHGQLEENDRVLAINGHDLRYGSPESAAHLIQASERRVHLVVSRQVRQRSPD

Binder	pKd
EWTDERQSKV [GAB3, Q8WWW8]	below the threshold
NLQEHSTTSV [RSBN1, Q5VWQ0]	below the threshold

Target: GRID2IP_2, A4D2P6
Test: holdup assay
Parameters: key: below the threshold = too weak to quantify, mostly under pKd 3.1 to 4
Settings: plain residues with an end cap or a label only (N-terminal biotin on a linker: ado-ado)

Chain of GRID2IP_2, A4D2P6 (A4D2P6 272-370): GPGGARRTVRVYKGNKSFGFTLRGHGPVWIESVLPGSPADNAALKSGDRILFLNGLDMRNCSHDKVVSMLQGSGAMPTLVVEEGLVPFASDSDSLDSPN

Binder	pKd
EWTDERQSKV [GAB3, Q8WWW8]	4.07
NLQEHSTTSV [RSBN1, Q5VWQ0]	3.8

Target: T4, DLG3_1, Q92796
Test: holdup assay
Parameters: key: below the threshold = too weak to quantify, mostly under pKd 3.1 to 4
Settings: plain residues with an end cap or a label only (N-terminal biotin on a linker: ado-ado)

Binder	pKd
EWTDERQSKV [GAB3, Q8WWW8]	3.59
NLQEHSTTSV [RSBN1, Q5VWQ0]	below the threshold

Target: T5, APBA2_1, Q99767
Test: holdup assay
Parameters: key: below the threshold = too weak to quantify, mostly under pKd 3.1 to 4
Settings: plain residues with an end cap or a label only (N-terminal biotin on a linker: ado-ado)

Binder	pKd
EWTDERQSKV [GAB3, Q8WWW8]	below the threshold
NLQEHSTTSV [RSBN1, Q5VWQ0]	below the threshold

Target: Inadl_6, Q8NI35
Test: holdup assay
Parameters: key: below the threshold = too weak to quantify, mostly under pKd 3.1 to 4
Settings: plain residues with an end cap or a label only (N-terminal biotin on a linker: ado-ado)

Chain of Inadl_6, Q8NI35 (Q8NI35 1058-1167): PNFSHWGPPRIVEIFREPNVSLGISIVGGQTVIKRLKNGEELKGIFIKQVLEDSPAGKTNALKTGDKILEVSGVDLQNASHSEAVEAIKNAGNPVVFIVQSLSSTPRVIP

Binder	pKd
EWTDERQSKV [GAB3, Q8WWW8]	below the threshold
NLQEHSTTSV [RSBN1, Q5VWQ0]	below the threshold

Target: LIMK2, P53671
Test: holdup assay
Parameters: key: below the threshold = too weak to quantify, mostly under pKd 3.1 to 4
Settings: plain residues with an end cap or a label only (N-terminal biotin on a linker: ado-ado)

Chain of LIMK2, P53671 (P53671 143-248): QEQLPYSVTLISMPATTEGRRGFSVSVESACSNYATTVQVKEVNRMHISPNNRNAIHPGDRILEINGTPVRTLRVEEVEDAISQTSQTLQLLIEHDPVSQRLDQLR

Binder	pKd
EWTDERQSKV [GAB3, Q8WWW8]	below the threshold
NLQEHSTTSV [RSBN1, Q5VWQ0]	below the threshold

Target: IL16_3, Q14005
Test: holdup assay
Parameters: key: below the threshold = too weak to quantify, mostly under pKd 3.1 to 4
Settings: plain residues with an end cap or a label only (N-terminal biotin on a linker: ado-ado)

Chain of IL16_3, Q14005 (Q14005 1107-1207): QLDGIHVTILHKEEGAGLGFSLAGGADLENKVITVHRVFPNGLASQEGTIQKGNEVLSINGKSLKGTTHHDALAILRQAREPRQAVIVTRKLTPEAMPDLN

Binder	pKd
EWTDERQSKV [GAB3, Q8WWW8]	below the threshold
NLQEHSTTSV [RSBN1, Q5VWQ0]	below the threshold

Target: T6, DLG3_2, Q92796
Test: holdup assay
Parameters: key: below the threshold = too weak to quantify, mostly under pKd 3.1 to 4
Settings: plain residues with an end cap or a label only (N-terminal biotin on a linker: ado-ado)

Binder	pKd
EWTDERQSKV [GAB3, Q8WWW8]	below the threshold
NLQEHSTTSV [RSBN1, Q5VWQ0]	3.47

Target: PARD3_3, Q8TEW0
Test: holdup assay
Parameters: key: below the threshold = too weak to quantify, mostly under pKd 3.1 to 4
Settings: plain residues with an end cap or a label only (N-terminal biotin on a linker: ado-ado)

Chain of PARD3_3, Q8TEW0 (Q8TEW0 582-685): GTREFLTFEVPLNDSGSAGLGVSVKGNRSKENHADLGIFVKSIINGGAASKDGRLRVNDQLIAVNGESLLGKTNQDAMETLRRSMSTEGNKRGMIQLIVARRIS

Binder	pKd
EWTDERQSKV [GAB3, Q8WWW8]	below the threshold
NLQEHSTTSV [RSBN1, Q5VWQ0]	below the threshold

Target: SCRIB_2, Q14160
Test: holdup assay
Parameters: key: below the threshold = too weak to quantify, mostly under pKd 3.1 to 4
Settings: plain residues with an end cap or a label only (N-terminal biotin on a linker: ado-ado)

Chain of SCRIB_2, Q14160 (Q14160 857-960): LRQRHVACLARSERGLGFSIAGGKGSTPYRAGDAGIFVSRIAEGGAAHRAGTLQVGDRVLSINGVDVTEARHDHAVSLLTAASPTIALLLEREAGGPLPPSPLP

Binder	pKd
EWTDERQSKV [GAB3, Q8WWW8]	below the threshold
NLQEHSTTSV [RSBN1, Q5VWQ0]	below the threshold

Target: LNX1_1, Q8TBB1
Test: holdup assay
Parameters: key: below the threshold = too weak to quantify, mostly under pKd 3.1 to 4
Settings: plain residues with an end cap or a label only (N-terminal biotin on a linker: ado-ado)

Chain of LNX1_1, Q8TBB1 (Q8TBB1 261-371): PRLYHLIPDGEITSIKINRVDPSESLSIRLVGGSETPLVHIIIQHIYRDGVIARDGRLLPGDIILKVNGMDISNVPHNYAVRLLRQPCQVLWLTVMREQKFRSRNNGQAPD

Binder	pKd
EWTDERQSKV [GAB3, Q8WWW8]	3.52
NLQEHSTTSV [RSBN1, Q5VWQ0]	below the threshold

Target: SCRIB_1, Q14160
Test: holdup assay
Parameters: key: below the threshold = too weak to quantify, mostly under pKd 3.1 to 4
Settings: plain residues with an end cap or a label only (N-terminal biotin on a linker: ado-ado)

Chain of SCRIB_1, Q14160 (Q14160 718-814): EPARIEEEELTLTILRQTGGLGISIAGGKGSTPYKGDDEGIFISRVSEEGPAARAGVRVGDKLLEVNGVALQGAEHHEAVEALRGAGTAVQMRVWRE

Binder	pKd
EWTDERQSKV [GAB3, Q8WWW8]	below the threshold
NLQEHSTTSV [RSBN1, Q5VWQ0]	3.58

Target: T7, SHANK1, Q9Y566
Test: holdup assay
Parameters: key: below the threshold = too weak to quantify, mostly under pKd 3.1 to 4
Settings: plain residues with an end cap or a label only (N-terminal biotin on a linker: ado-ado)

Binder	pKd
EWTDERQSKV [GAB3, Q8WWW8]	3.88
NLQEHSTTSV [RSBN1, Q5VWQ0]	3.91

Target: T8, RHPN1, Q8TCX5
Test: holdup assay
Parameters: key: below the threshold = too weak to quantify, mostly under pKd 3.1 to 4
Settings: plain residues with an end cap or a label only (N-terminal biotin on a linker: ado-ado)

Binder	pKd
EWTDERQSKV [GAB3, Q8WWW8]	4.2
NLQEHSTTSV [RSBN1, Q5VWQ0]	4.04

Target: T9, DVL3, Q92997
Test: holdup assay
Parameters: key: below the threshold = too weak to quantify, mostly under pKd 3.1 to 4
Settings: plain residues with an end cap or a label only (N-terminal biotin on a linker: ado-ado)

Binder	pKd
EWTDERQSKV [GAB3, Q8WWW8]	below the threshold
NLQEHSTTSV [RSBN1, Q5VWQ0]	below the threshold

Target: TJP1_2, Q07157
Test: holdup assay
Parameters: key: below the threshold = too weak to quantify, mostly under pKd 3.1 to 4
Settings: plain residues with an end cap or a label only (N-terminal biotin on a linker: ado-ado)

Chain of TJP1_2, Q07157 (Q07157 181-274): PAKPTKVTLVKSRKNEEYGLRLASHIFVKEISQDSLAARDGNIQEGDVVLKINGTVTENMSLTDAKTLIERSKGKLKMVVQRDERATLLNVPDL

Binder	pKd
EWTDERQSKV [GAB3, Q8WWW8]	below the threshold
NLQEHSTTSV [RSBN1, Q5VWQ0]	below the threshold

Target: T10, MPDZ_12, O75970
Test: holdup assay
Parameters: key: below the threshold = too weak to quantify, mostly under pKd 3.1 to 4
Settings: plain residues with an end cap or a label only (N-terminal biotin on a linker: ado-ado)

Binder	pKd
EWTDERQSKV [GAB3, Q8WWW8]	below the threshold
NLQEHSTTSV [RSBN1, Q5VWQ0]	below the threshold

Target: GOPC, Q9HD26
Test: holdup assay
Parameters: key: below the threshold = too weak to quantify, mostly under pKd 3.1 to 4
Settings: plain residues with an end cap or a label only (N-terminal biotin on a linker: ado-ado)

Binder	pKd
EWTDERQSKV [GAB3, Q8WWW8]	3.82
NLQEHSTTSV [RSBN1, Q5VWQ0]	3.57
